Among the data in publication PMC5679380 are stoichiometry N values, retold here.

The target of the test is D-tagatose 3-epimerase from Rhodobacter sphaeroides (Rhodobacter sphaeroides). Put plainly: SEC; Superdex200 10/300 GL, 20 mM Tris-HCl pH 8.0, 100 mM NaCl, 1 mM dithiothreitol; 50 ug of purified RsDTE; six standard protein markers (6.5-158 kDa) for calibration.

Turning to “D-tagatose 3-epimerase from Rhodobacter sphaeroides (enzyme)”, the stoichiometry N is 4.

A word on the stoichiometry N: it is the number of molecules, sites or subunits per partner or assembly.
